What was measured:
[1] = target: CsgE W48A (E. coli MC4100); experiment: native gel or EMSA; native PAGE of purified CsgE (monomer peak) incubated at 4°C or 25°C for various times
[2] = target: 6x-His-tagged CsgA lacking the 20-residue N-terminal signal sequence (E. coli) (UniProt P28307)
[3] = target: CsgE F79A (E. coli MC4100); experiment: native gel or EMSA; native PAGE of purified CsgE (monomer peak) incubated at 4°C or 25°C for various times
P0AE95 [4] = experiment: SEC-MALS; Superdex 200 Increase 10/300 GL, 0.3 ml/min; protein at 2 mg/ml in 50 mM KHPO4 pH 7.3 with and without 150 mM NaCl
[5] = target: T1, 6x-His-tagged CsgA lacking the 20-residue N-terminal signal sequence (E. coli, UniProt P28307 21-151); experiment: NMR titration; 1H-15N HSQC chemical shift perturbation at one ratio: 15N-labeled WT CsgE (80 µM, 0.4 M arginine) with or without unlabeled CsgA (80 µM); settings: both partners purified
T1 construct: Freshly purified, unfolded monomer; also called unlabeled CsgA; monomeric CsgA

P0AE95 [6] = experiment: SEC; Superdex 200 10/300, 50 mM potassium phosphate, 150 mM NaCl, pH 7.4; purified CsgE (20 µM) incubated at 25°C for 5 h to 28 h; monomer to nonamer
P0AE95 [7] = experiment: SEC; Superdex 200 10/300, 50 mM potassium phosphate, 150 mM NaCl, pH 7.4; purified CsgE (20 µM) incubated at 37°C; monomer to nonamer and larger oligomers
[8] = target: T2, WT CsgE (6x-His-tagged, E. coli MC4100) (E. coli MC4100), P0AE95; experiment: native gel or EMSA; native PAGE of purified CsgE (monomer peak) incubated at 4°C or 25°C for various times; settings: remark: other sources report otherwise
T2 chain: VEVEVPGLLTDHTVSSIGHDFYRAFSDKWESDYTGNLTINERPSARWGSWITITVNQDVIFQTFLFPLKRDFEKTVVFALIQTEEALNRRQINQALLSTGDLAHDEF

[9] = target: T2, WT CsgE (6x-His-tagged, E. coli MC4100) …; experiment: SEC-MALS; Superdex 200 Increase 10/300 GL, 0.3 ml/min; protein at 2 mg/ml in 50 mM KHPO4 pH 7.3 with and without 150 mM NaCl; settings: remark: other sources report otherwise
[10] = target: T2, WT CsgE (6x-His-tagged, E. coli MC4100) …; experiment: SEC; Superdex 200 10/300, 50 mM potassium phosphate, 150 mM NaCl, pH 7.4; purified CsgE (20 µM) incubated at 25°C for 5 h to 28 h; monomer to nonamer; settings: remark: other sources report otherwise
[11] = target: T2, WT CsgE (6x-His-tagged, E. coli MC4100) …; experiment: SEC; Superdex 200 10/300, 50 mM potassium phosphate, 150 mM NaCl, pH 7.4; purified CsgE (20 µM) incubated at 37°C; monomer to nonamer and larger oligomers; settings: remark: other sources report otherwise
[12] = target: T2, WT CsgE (6x-His-tagged, E. coli MC4100) …; experiment: SEC; Superdex 200 10/300, 50 mM potassium phosphate, 150 mM NaCl, pH 7.4; purified CsgE (20 µM) immediately after purification and kept at 4°C for up to 20 days; monomer to nonamer; settings: remark: other sources report otherwise

Chain of 6x-His-tagged CsgA lacking the 20-residue N-terminal signal sequence (E. coli) (P28307 21-151): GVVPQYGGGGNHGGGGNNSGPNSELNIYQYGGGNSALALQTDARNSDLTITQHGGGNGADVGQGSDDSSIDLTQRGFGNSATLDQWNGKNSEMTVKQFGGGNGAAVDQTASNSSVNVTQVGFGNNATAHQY
T1 sequence (P28307 21-151): as above

CsgE W48A (natural protein)
stoichiometry N [1]: 9

CsgE R47A (natural protein)
Thioflavin T fluorescence of CsgA polymerization (25°C, 48 h): T50 of CsgA with CsgE R47A relative to WT CsgE (% decrease of T50 relative to WT CsgE) [2]: > 50

CsgE F79A (natural protein)
stoichiometry N [3]: 9

B1: WT CsgE (6x-His-tagged, E. coli MC4100) (natural protein, UniProt P0AE95 23-129, looked up)
chain: T2 chain
notes: CsgE, periplasmic curli accessory protein of E. coli MC4100; add 21 for the precursor numbering of P0AE95; 15N-labeled (M9 minimal medium with [15N]ammonium sulfate) for NMR; Monomer peak of the S-100 column was used for SEC and native PAGE; also called wild-type CsgE; recombinant WT CsgE
high-molecular-weight aggregate, percent of the loaded mass (P0AE95 [4]): a large, high-molecular-weight aggregate representing 32% of the loaded mass
binding result [5]: binds
nonamer peak area as percent of monomer peak area, after 5 h at 25°C (P0AE95 [6]): the nonamer peak area was approximately 20% of the monomer peak area
nonamer peak area as percent of monomer peak area, after 28 h at 25°C (P0AE95 [6]): the nonamer peak area was approximately 40% of the monomer peak area
loss of monomer peak area within 1 h at 37°C (P0AE95 [7]): the monomeric peak loses >65% of its area within 1 h of incubation

B2: WT CsgE (6x-His-tagged, E. coli MC4100), P0AE95 23-129 (natural protein)
chain: T2 chain
stoichiometry N [8]: 9
small oligomer, percent of the mass [9]: 2%
stoichiometry N [10]: 9
stoichiometry N [11]: 9
monomer, percent of peak area [12]: > 90%
stoichiometry N [12]: 9
